Target: T1, human CD3 expressed on cells (human, UniProt P07766 23-207; P04234 22-171; P09693 23-182)
T1 construct: whole, on cells; CD3 complex on Jurkat cells and on human primary T cells
Experiment: flow cytometry, 25 nM
Description: Purified antibodies were confirmed to bind CD3 expressed on cells using the CytoFLEX S or LX flow cytometers (Beckman Coulter). Antibodies were diluted to 25 nM in FACS buffer (PBS+2% FBS) and were incubated with CD3-expressing cells for 30 minutes at 4° C. […] The median fluorescence intensity of the binding signal for each antibody was normalized to the isotype control to obtain a fold over isotype value. An antibody with a fold over isotype (FOI) of ≥10 was considered to be positive for binding.

T1 sequence (P07766 23-207, chain 1 of 3): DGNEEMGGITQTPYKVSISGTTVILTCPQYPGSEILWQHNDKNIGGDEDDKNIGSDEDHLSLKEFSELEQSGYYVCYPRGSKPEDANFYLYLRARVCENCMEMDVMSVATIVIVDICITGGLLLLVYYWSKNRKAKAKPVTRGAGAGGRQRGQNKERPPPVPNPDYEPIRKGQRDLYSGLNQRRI
T1 sequence (P04234 22-171, chain 2 of 3): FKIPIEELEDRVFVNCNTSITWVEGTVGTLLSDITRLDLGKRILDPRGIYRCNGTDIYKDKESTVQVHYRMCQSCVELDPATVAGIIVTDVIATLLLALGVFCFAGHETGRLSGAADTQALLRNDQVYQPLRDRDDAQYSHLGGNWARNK
T1 sequence (P09693 23-182, chain 3 of 3): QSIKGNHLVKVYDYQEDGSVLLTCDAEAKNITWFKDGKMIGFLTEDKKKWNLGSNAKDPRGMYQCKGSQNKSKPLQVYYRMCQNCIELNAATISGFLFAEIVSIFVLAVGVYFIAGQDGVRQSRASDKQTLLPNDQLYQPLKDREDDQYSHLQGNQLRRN

Row | Binder | Human primary T Cell Binding (FOI) | Jurkat Cell Binding (FOI)
1 | mAb 167 (antibody, V domains shown) VH: EVHLVESGGGLVQPGRSLRLSCAASGFTFDDYAMHWVRQAPGKGLEWVSGISWNSGTIGYADSVKGRFTISRDNAKNSLYLEMNSLRAEDTALYYCAKDSSGYGHYYHYYIDVWGTGTTVTVSS VL: EIVMTQSPATLSVSPGGRATLSCRASQSVGSNLAWYQQKPGQAPRLLIYDASTRATGIPARFRGSGSGTEFTLTISGLQSEDFAVYYCQLYYNWPHFGQGTRLEIK | 167 | 124
2 | mAb 68 (antibody, V domains shown) VH: EVQLVDSGGGLVQPGGSLRLSCSGSGFTFSSYWMSWVRQAPGKGLEWVANIKQDGSQKYYVDSVKGRFTISRDNVKNSLYLQMNSLRVEDTAVYYCARDESSSWYWYFDLWGRGTLVTVSS VL: DIQMTQSPSTLSASVGDRVTLTCRASQNIVKWLAWYQQKPGKAPKLLIYKASSLESGVPSWFSGSGSGTEFTLTINSLQPDDFATYYCQQYYTYSRTFGQGTKVEIK | 117 | 113
3 | mAb 77 (antibody, V domains shown) VH: EVQLVESGGGLVQPGGSLRLSCAASGFTFSNYWMSWVRQAPGKGLEWVANIKQDGSEKYYVDSVRGRFTISRDNAKKSLYLQMNSLRAEDTAVYYCARDNSNYAYWYFDIWGRGTLVTVSS VL: DIQMTQSPSTLSVSVGDRVTITCRASQSIRKWLAWYQQKPGKAPKLLIFKASSLESGVPSRFSGSGSGTEFTLTISSLQPDDFATYYCQQYDTYSRTFGQGTKVEIK | 125 | 106
4 | mAb 140 (antibody, V domains shown) VH: QVQLVESGGGVVQPGRSLRLSCAASGFTFSTYGMHWVRQAPGKGLEWVAVIWYDGSHKYYADSVKGRFTISRDNSKNTLYLQMNSLRAEDTAVYYCARTGITGTTAYFYFDYWGQGTLVTVSS VL: not shown | 148 | 135
5 | mAb 146 (antibody, V domains shown) VH: QVQLVESGGGVVQPGRSLRLSCAASGFTFITYGMHWVRQAPGKGLEWVAVIWYDGSHKYYADSVKGRFTISRDNSKNMLYLQMNSLRVEDTAVYYCARTGITGTTAYFYFDNWGQGTLVTVSS VL: not shown | 340 | 194
6 | mAb 144 (antibody, V domains shown) VH: QVQLVESGGYVVQPGRSLRLSCAASGFTFSNFGMHWVRQAPGKGLEWVAVIWYDGSHKYYADSVKGRFTISRDNSKNTLYLQMNSLRAEDTAVYYCARTGITGTTAYFYFDYWGQGTLVTVSS VL: not shown | 157 | 139
7 | mAb 161 (antibody, V domains shown) VH: EVQLVESGGGLVQPGRSLRLSCAASGITFADYTMHWVRQAPGKGLEWVSGISWNSGSIDYADSVKGRFTISRDNAKKTLYLQMNRLRAEDTALYYCAKDSSGYGHYYFYYLDVWGKGTTVTVSS VL: EIVMTQSPATLSVSPGERATLSCRASQSVSNNLAWYQQKPGQAPRLLIYSTSTRATGIPARFSGSRSGTEFTLTISSLQSEDSAVYYCQQYNNWPHFGQGTRLEIK | 170 | 106
8 | mAb 43 (antibody, V domains shown) VH: QAQLVQSGSELKKPGASVKVSCKASGYTFTKHSMNWVRQAPGQGLEWMGWINTNTGNPMYAQGFTGRFVFSLDTSVTTAYLQISSLKAEDTAVYYCAREGDYDFWSGFFNFDYWGQGTLVTVSS VL: DIQMTQSPSSLSASVGDRVTITCRASQGIRNDLGWYQQKPGKAPKRLIYAASSLQSGVPSRFSGSGSGAEFTLTISSLQPEDFATYYCLQHNSYPRTFGQGTKVEIK | 83.3 | 108

Source: patent US20230295310A1 (ABCELLERA BIOLOGICS, published 2023)
